We go through eight molecules from US20210388087A1 (Chugai, published 2021).

B1: H183/L072 VL S26F (antibody, name in Kabat numbering, V domains shown)
VH: QVQLVESGGGLVQPGRSLRLSCAASGFTFSNAWMHWVRQAPGKGLEWVAQIKDKGNAYAAYYAPSVKGRFTISRDDSKNSIYLQMNSLKTEDTAVYYCHYVHYASASTVLPAFGVDAWGQGTTVTVSS
VL: DIVMTQSPLSLPVTPGEPASISCQAFQELVHMNRNTYLHWYQQKPGQAPRLLIYKVSNRFPGVPDRFSGSGSGTDFTLKISRVEAEDVGVYYCAQGTSVPFTFGQGTKLEIK
B2: H183/L072 VL S26M (antibody, name in Kabat numbering, V domains shown)
VH: QVQLVESGGGLVQPGRSLRLSCAASGFTFSNAWMHWVRQAPGKGLEWVAQIKDKGNAYAAYYAPSVKGRFTISRDDSKNSIYLQMNSLKTEDTAVYYCHYVHYASASTVLPAFGVDAWGQGTTVTVSS
VL: DIVMTQSPLSLPVTPGEPASISCQAMQELVHMNRNTYLHWYQQKPGQAPRLLIYKVSNRFPGVPDRFSGSGSGTDFTLKISRVEAEDVGVYYCAQGTSVPFTFGQGTKLEIK
B3: H183/L072 VL S26I (antibody, name in Kabat numbering, V domains shown)
VH: QVQLVESGGGLVQPGRSLRLSCAASGFTFSNAWMHWVRQAPGKGLEWVAQIKDKGNAYAAYYAPSVKGRFTISRDDSKNSIYLQMNSLKTEDTAVYYCHYVHYASASTVLPAFGVDAWGQGTTVTVSS
VL: DIVMTQSPLSLPVTPGEPASISCQAIQELVHMNRNTYLHWYQQKPGQAPRLLIYKVSNRFPGVPDRFSGSGSGTDFTLKISRVEAEDVGVYYCAQGTSVPFTFGQGTKLEIK
B4: H183/L072 VL S26K (antibody, name in Kabat numbering, V domains shown)
VH: QVQLVESGGGLVQPGRSLRLSCAASGFTFSNAWMHWVRQAPGKGLEWVAQIKDKGNAYAAYYAPSVKGRFTISRDDSKNSIYLQMNSLKTEDTAVYYCHYVHYASASTVLPAFGVDAWGQGTTVTVSS
VL: DIVMTQSPLSLPVTPGEPASISCQAKQELVHMNRNTYLHWYQQKPGQAPRLLIYKVSNRFPGVPDRFSGSGSGTDFTLKISRVEAEDVGVYYCAQGTSVPFTFGQGTKLEIK
B5: H183/L072 VL S26G (antibody, name in Kabat numbering, V domains shown)
VH: QVQLVESGGGLVQPGRSLRLSCAASGFTFSNAWMHWVRQAPGKGLEWVAQIKDKGNAYAAYYAPSVKGRFTISRDDSKNSIYLQMNSLKTEDTAVYYCHYVHYASASTVLPAFGVDAWGQGTTVTVSS
VL: DIVMTQSPLSLPVTPGEPASISCQAGQELVHMNRNTYLHWYQQKPGQAPRLLIYKVSNRFPGVPDRFSGSGSGTDFTLKISRVEAEDVGVYYCAQGTSVPFTFGQGTKLEIK
B6: H183/L072 VL S26L (antibody, name in Kabat numbering, V domains shown)
VH: QVQLVESGGGLVQPGRSLRLSCAASGFTFSNAWMHWVRQAPGKGLEWVAQIKDKGNAYAAYYAPSVKGRFTISRDDSKNSIYLQMNSLKTEDTAVYYCHYVHYASASTVLPAFGVDAWGQGTTVTVSS
VL: DIVMTQSPLSLPVTPGEPASISCQALQELVHMNRNTYLHWYQQKPGQAPRLLIYKVSNRFPGVPDRFSGSGSGTDFTLKISRVEAEDVGVYYCAQGTSVPFTFGQGTKLEIK
B7: H183/L072 VL S26H (antibody, name in Kabat numbering, V domains shown)
VH: QVQLVESGGGLVQPGRSLRLSCAASGFTFSNAWMHWVRQAPGKGLEWVAQIKDKGNAYAAYYAPSVKGRFTISRDDSKNSIYLQMNSLKTEDTAVYYCHYVHYASASTVLPAFGVDAWGQGTTVTVSS
VL: DIVMTQSPLSLPVTPGEPASISCQAHQELVHMNRNTYLHWYQQKPGQAPRLLIYKVSNRFPGVPDRFSGSGSGTDFTLKISRVEAEDVGVYYCAQGTSVPFTFGQGTKLEIK
B8: H183/L072 VL S26N (antibody, name in Kabat numbering, V domains shown)
VH: QVQLVESGGGLVQPGRSLRLSCAASGFTFSNAWMHWVRQAPGKGLEWVAQIKDKGNAYAAYYAPSVKGRFTISRDDSKNSIYLQMNSLKTEDTAVYYCHYVHYASASTVLPAFGVDAWGQGTTVTVSS
VL: DIVMTQSPLSLPVTPGEPASISCQANQELVHMNRNTYLHWYQQKPGQAPRLLIYKVSNRFPGVPDRFSGSGSGTDFTLKISRVEAEDVGVYYCAQGTSVPFTFGQGTKLEIK

For the test, the target named is T1, Human CD3eg linker (human).
T1 construct: Single-chain construct; also called recombinant human CD3
T1 chain: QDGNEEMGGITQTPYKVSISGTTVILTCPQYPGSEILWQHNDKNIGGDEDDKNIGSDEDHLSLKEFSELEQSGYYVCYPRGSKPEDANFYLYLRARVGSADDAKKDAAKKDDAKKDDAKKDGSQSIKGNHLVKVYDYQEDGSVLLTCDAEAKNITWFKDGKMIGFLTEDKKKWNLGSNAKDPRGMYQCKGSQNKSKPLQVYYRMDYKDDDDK
In words: SPR; fold vs parent H183/L072. (In general: Surface plasmon resonance follows binding to a sensor surface in real time, without labels.)
As to B1, the “fold change of affinity” value was 0.6 fold. As for B2, the figure is 0.6 fold; as for B3, 0.5 fold. Turning to B4, the “fold change of affinity” value came to 0.7 fold. As for B5, the figure is 0.9 fold; as for B6, 0.5 fold. Take B7: the “fold change of affinity” value came out at 0.4 fold. The result for B8 reads 0.9 fold.
